The target in one assay is T1, Survivin120 wildtype (Homo sapiens, UniProt O15392).
T1 construct: the only published NMR structure originated from a truncated Survivin (aa 1-120) with improved solubility; GST with PreScission site (N); made in house; host or cells: Escherichia coli soluBL21
Description: Fluorescence anisotropy binding of FAM-labeled tweezers to Survivin120 wildtype. The method, then: (§1) Fluorescence anisotropy was measured with a Jasco Spectrofluorometer FP-8300 in PBS buffer, pH 7.4, at 25 °C and data were collected with the software Spectra Manager™.
(§2) For binding studies, FAM-labeled molecular tweezers (200 nM) were titrated with Survivin120 wildtype or K90/103T mutant until a final concentration of 180 µM (wildtype) or 350 µM (K90/103T) was reached. Data were normalized to the measured anisotropy A0 in the absence of protein. Using a single-site binding model, the fluorescence anisotropy data were fitted to the equation:3 y=A⋅L+x+KD−L+x+KD^2−4⋅x⋅L/2⋅L where A is the anisotropy at saturation, L is the concentration of the fluorescent ligand, x is the concentration of protein titrated, and KD is the dissociation constant.
On the technique in general: Polarisation of emitted light reports the rotation of a fluorescent probe.

Another assay addresses T2, Survivin120 K90/103T (Homo sapiens, UniProt O15392, K103T/K90T).
T2 construct: the only published NMR structure originated from a truncated Survivin (aa 1-120) with improved solubility; GST with PreScission site (N); made in house; host or cells: Escherichia coli soluBL21
The assay is described as follows: Fluorescence anisotropy binding of FAM-labeled tweezers to Survivin120 K90/103T. The method, then: as §1, §2

Another assay concerns the target Survivin142-HA (human) (UniProt O15392). The assay is described as follows: pull-down; competition in the pull-down of a5: 293T lysate with Survivin142-HA preincubated 1 h with 10 nM to 200 µM tweezer conjugate before GST-CRM1, RanQ69L and dGTP.
For assay [1], the target named is Atto488-labeled Survivin120 (human) (UniProt O15392). Description: fluorescence polarisation; fluorescence anisotropy competition; Atto488-Survivin120 preincubated with CRM1_1-1062VLV430AAA at 1:5, titrated with tweezers to approx. 180 µM; PBS pH 7.4, 25 °C; n = 1.
Sequence of Atto488-labeled Survivin120 (human) (O15392 1-120): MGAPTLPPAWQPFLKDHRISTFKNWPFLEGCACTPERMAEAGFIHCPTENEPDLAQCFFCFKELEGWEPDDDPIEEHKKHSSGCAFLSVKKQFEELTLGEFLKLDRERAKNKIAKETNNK
Assay [2] deals with TW-ELTL (asymmetrical molecular tweezer linked to the short peptide ELTL) (human). The assay is described as follows: ITC; tweezer conjugate (100 µM) in the cell, Survivin120 (1.2 mM WT or 2.5 mM K90/103T) in the syringe; PBS pH 7.4, 25 °C; one set of sites model. For orientation: In ITC the heat of successive injections is recorded.
The target of assay [3] is TW-ELTLGEFL (asymmetrical molecular tweezer linked to the elongated peptide ELTLGEFL) (human). The assay is described as above.
Assay [4] has as its target TW-LFEEGLLT (scrambled peptide-modified tweezer). The description is as above.
The next assay concerns the target TW-ELTLGEFL-FAM (human). The assay is described as follows: fluorescence polarisation; fluorescence anisotropy; 200 nM FAM-labeled tweezer titrated with Survivin120 (to 180 µM) or K90/103T (to 350 µM); PBS pH 7.4, 25 °C; single-site model.
For another assay, the target named is TW-ELTL-FAM (human). The description is as above.

Peptide text beside a SMILES is read from it. * marks the point of attachment. X1 = O=C(Cn1cc(CCOP(=O)(O)Oc2c3c(c(OP(=O)(O)O)c4c2C2CC4c4cc5c(cc42)C2CC5c4ccccc42)C2CC3c3cc4c(cc32)C2CC4c3ccccc32)nn1)*; 5FAM = O=C1OC2(c3ccc(O)cc3Oc3cc(O)ccc32)c2ccc(C(=O)*)cc21

Sequence of Survivin142-HA (human) (O15392 whole entry): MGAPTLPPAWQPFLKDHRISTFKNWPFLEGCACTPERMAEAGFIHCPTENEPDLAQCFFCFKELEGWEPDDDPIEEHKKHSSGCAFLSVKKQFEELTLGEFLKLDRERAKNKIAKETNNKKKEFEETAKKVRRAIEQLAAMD
T2 sequence (O15392 1-120 K90T/K103T): as the sequence (O15392 1-120) above, with K90T, K103T counted along it
T1 sequence (O15392 1-120): as the sequence (O15392 1-120) above

In the case of `CC(C)C[C@H](NC(=O)[C@H](Cc1ccccc1)NC(=O)[C@H](CCC(=O)O)NC(=O)CNC(=O)[C@H](CC(C)C)NC(=O)[C@@H](NC(=O)[C@H](CC(C)C)NC(=O)[C@H](CCC(=O)O)NC(=O)Cn1cc(CCOP(=O)(O)Oc2c3c(c(OP(=O)(O)O)c4c2C2CC4c4cc5c(cc42)C2CC5c4ccccc42)C2CC3c3cc4c(cc32)C2CC4c3ccccc32)nn1)[C@@H](C)O)C(=O)N[C@@H](CCCCNC(=O)c1ccc2c(c1)C(=O)OC21c2ccc(O)cc2Oc2cc(O)ccc21)C(=O)NCC(=O)O` [TW-ELTLGEFL-FAM] (X1-ELTLGEFLK(5FAM)G-OH), the figures for the Kd on Survivin120 wildtype and on Survivin120 K90/103T were 5 ± 0.5 µM and 92 ± 5 µM, respectively.

Regarding `CC(C)C[C@H](NC(=O)[C@H](CCC(=O)O)NC(=O)Cn1cc(CCOP(=O)(O)Oc2c3c(c(OP(=O)(O)O)c4c2[C@H]2C[C@@H]4c4cc5c(cc42)[C@H]2C[C@@H]5c4ccccc42)[C@H]2C[C@@H]3c3cc4c(cc32)[C@H]2C[C@@H]4c3ccccc32)nn1)C(=O)N[C@H](C(=O)N[C@@H](CC(C)C)C(=O)N[C@@H](CCCCNC(=O)c1ccc2c(c1)C(=O)OC21c2ccc(O)cc2Oc2cc(O)ccc21)C(=O)NCC(=O)O)[C@@H](C)O` [TW-ELTL-FAM], the values for the Kd on Survivin120 wildtype and at Survivin120 K90/103T were 26 ± 2 µM and 240 ± 20 µM, respectively.

Regarding “TW-ELTL (asymmetrical molecular tweezer linked to the short peptide ELTL)”, in the assay with Survivin142-HA (human), the concentration required to disrupt the Survivin–CRM1 complex was 10 to 50 µM. Moreover, the concentration for half-maximal inhibition (IC50) (commonly the concentration at which inhibition is half-maximal) in [1] was 39 µM.

In the case of “Survivin120 (truncated Survivin, aa 1-120) (from UniProt O15392 1-120) (domain or fragment)”, the Kd (commonly the free concentration of one partner at which half of the binding sites on the other are occupied at equilibrium, for simple one-to-one binding) worked out at 24 µM in assay [2]; 19 µM in assay [3]; 68 µM in [4]; 5 µM with TW-ELTLGEFL-FAM (human); 26 µM with TW-ELTL-FAM (human). Besides, the stoichiometry N (ligand/protein) in assay [2] and in [3] was 2 in each case.

Molecule “TW-ELTLGEFL (asymmetrical molecular tweezer linked to the elongated peptide ELTLGEFL)” registered a concentration effective in disrupting the Survivin–CRM1 complex with Survivin142-HA (human) of 1 to 10 µM. Also, in assay [1], the IC50 was found to be 12 µM.

The values are drawn from article PMC7940618, “Specific inhibition of the Survivin–CRM1 interaction by peptide-modified molecular tweezers” (Nature Communications, 2021).
